Positions count from the first letter of the chain named.
T1: DVL3, Q92997
T1 sequence (Q92997 244-331, limits assumed, looked up): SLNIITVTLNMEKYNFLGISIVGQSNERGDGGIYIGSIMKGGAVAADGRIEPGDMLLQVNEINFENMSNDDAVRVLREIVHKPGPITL

T2: DLG3_1, Q92796
T2 sequence (Q92796 125-227, limits assumed, looked up): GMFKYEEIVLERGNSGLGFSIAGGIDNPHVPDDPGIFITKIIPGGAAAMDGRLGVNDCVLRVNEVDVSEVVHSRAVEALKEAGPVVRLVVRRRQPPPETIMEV

T3: DLG3_2, Q92796
T3 sequence (Q92796 221-321, limits assumed, looked up): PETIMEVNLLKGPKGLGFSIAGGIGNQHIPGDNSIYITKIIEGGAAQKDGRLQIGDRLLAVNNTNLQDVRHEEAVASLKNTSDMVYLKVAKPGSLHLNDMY

T4: GRIP1_2, Q9Y3R0
T4 sequence (Q9Y3R0 145-248, limits assumed, looked up): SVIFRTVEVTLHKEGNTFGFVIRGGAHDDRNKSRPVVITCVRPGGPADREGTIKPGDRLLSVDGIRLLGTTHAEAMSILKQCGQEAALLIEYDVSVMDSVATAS

T5: LIN7B, Q9HAP6
T5 sequence (Q9HAP6 88-185, limits assumed, looked up): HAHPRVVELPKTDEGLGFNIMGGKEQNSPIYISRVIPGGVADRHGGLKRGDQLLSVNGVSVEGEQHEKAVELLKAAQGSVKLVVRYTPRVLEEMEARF

T6: FRMPD1, Q5SYB0
T6 sequence (Q5SYB0 52-145, limits assumed, looked up): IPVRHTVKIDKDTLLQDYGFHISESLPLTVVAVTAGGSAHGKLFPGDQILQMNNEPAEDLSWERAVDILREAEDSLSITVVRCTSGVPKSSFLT

T7: APBA2_1, Q99767
T7 sequence (Q99767 563-664, limits assumed, looked up): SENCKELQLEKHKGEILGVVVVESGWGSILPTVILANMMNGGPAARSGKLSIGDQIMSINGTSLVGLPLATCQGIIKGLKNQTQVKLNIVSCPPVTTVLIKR

T8: LIN7A, O14910
T8 sequence (O14910 103-200, limits assumed, looked up): T5 sequence (Q9HAP6 88-185, limits assumed, looked up) with A2S, I20V, V35I, D42E, Q65H, Q77K, G78D, R89K

T9: PCLO, Q9Y6V0
T9 sequence (Q9Y6V0 4491-4600, limits assumed, looked up): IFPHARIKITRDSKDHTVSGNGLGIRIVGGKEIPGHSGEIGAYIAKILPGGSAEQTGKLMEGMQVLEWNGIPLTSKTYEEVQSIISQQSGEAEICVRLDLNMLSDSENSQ

T10: MPP6, Q9NZW5
T10 sequence (Q9NZW5 125-219, limits assumed, looked up): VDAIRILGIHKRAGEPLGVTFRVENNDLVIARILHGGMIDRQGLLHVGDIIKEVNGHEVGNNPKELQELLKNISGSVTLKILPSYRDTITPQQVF

T11: PDZRN3_1, Q9UPQ7
T11 sequence (Q9UPQ7 244-349, limits assumed, looked up): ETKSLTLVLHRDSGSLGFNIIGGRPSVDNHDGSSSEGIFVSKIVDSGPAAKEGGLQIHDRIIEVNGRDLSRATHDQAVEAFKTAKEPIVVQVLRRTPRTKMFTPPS

T12: SNTG1, Q9NSN8
T12 sequence (Q9NSN8 52-150, limits assumed, looked up): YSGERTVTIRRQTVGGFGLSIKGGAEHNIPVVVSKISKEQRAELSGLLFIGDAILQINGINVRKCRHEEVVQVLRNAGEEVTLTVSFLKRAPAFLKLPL


Each binder was assayed against SCRIB_3, Q14160 (assay: holdup assay). Conditions: plain residues with an end cap or a label only (N-terminal biotin on a linker: ado-ado).
Chain of SCRIB_3, Q14160 (Q14160 999-1103): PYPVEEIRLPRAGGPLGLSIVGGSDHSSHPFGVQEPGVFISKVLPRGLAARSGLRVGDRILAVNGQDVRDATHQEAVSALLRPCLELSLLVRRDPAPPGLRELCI
Set-up: key: below the threshold = too weak to quantify, mostly under pKd 3.1 to 4

pKd | Binder
below the threshold | QLSFNTDTLC [ABCA2, Q9BZC7]
below the threshold | EKCGKEFSEF [PRKACA, P17612]

These binders were tested against T1, DVL3, Q92997 (assay: holdup assay). Conditions: plain residues with an end cap or a label only (N-terminal biotin on a linker: ado-ado).
Set-up: key: below the threshold = too weak to quantify, mostly under pKd 3.1 to 4

pKd | Binder
below the threshold | QLSFNTDTLC [ABCA2, Q9BZC7]
below the threshold | EKCGKEFSEF [PRKACA, P17612]

The binders below were run against T2, DLG3_1, Q92796 (assay: holdup assay). Conditions: plain residues with an end cap or a label only (N-terminal biotin on a linker: ado-ado).
Set-up: key: below the threshold = too weak to quantify, mostly under pKd 3.1 to 4

pKd | Binder
3.61 | QLSFNTDTLC [ABCA2, Q9BZC7]
below the threshold | EKCGKEFSEF [PRKACA, P17612]

The binders below were run against FRMPD2_2, Q68DX3 (assay: holdup assay). Conditions: plain residues with an end cap or a label only (N-terminal biotin on a linker: ado-ado).
Chain of FRMPD2_2, Q68DX3 (Q68DX3 944-1038): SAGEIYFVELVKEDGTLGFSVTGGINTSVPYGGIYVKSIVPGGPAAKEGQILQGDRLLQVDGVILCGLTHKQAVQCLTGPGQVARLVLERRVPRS
Set-up: key: below the threshold = too weak to quantify, mostly under pKd 3.1 to 4

pKd | Binder
below the threshold | QLSFNTDTLC [ABCA2, Q9BZC7]
below the threshold | EKCGKEFSEF [PRKACA, P17612]

Each binder was assayed against T3, DLG3_2, Q92796 (assay: holdup assay). Conditions: plain residues with an end cap or a label only (N-terminal biotin on a linker: ado-ado).
Set-up: key: below the threshold = too weak to quantify, mostly under pKd 3.1 to 4

pKd | Binder
4.26 | QLSFNTDTLC [ABCA2, Q9BZC7]
4.11 | EKCGKEFSEF [PRKACA, P17612]

What follows are binders tested against PDLIM1, O00151 (assay: holdup assay). Conditions: plain residues with an end cap or a label only (N-terminal biotin on a linker: ado-ado).
Chain of PDLIM1, O00151 (O00151 1-87): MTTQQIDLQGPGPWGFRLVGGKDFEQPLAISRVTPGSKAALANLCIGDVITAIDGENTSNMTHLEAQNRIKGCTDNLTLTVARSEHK
Set-up: key: below the threshold = too weak to quantify, mostly under pKd 3.1 to 4

pKd | Binder
below the threshold | QLSFNTDTLC [ABCA2, Q9BZC7]
below the threshold | EKCGKEFSEF [PRKACA, P17612]

These binders were tested against LNX1_3, Q8TBB1 (assay: holdup assay). Conditions: plain residues with an end cap or a label only (N-terminal biotin on a linker: ado-ado).
Chain of LNX1_3, Q8TBB1 (Q8TBB1 500-596): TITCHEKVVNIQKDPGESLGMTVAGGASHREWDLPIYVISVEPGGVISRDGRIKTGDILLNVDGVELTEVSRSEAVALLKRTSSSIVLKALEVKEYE
Set-up: key: below the threshold = too weak to quantify, mostly under pKd 3.1 to 4

pKd | Binder
below the threshold | QLSFNTDTLC [ABCA2, Q9BZC7]
below the threshold | EKCGKEFSEF [PRKACA, P17612]

Each binder was assayed against T4, GRIP1_2, Q9Y3R0 (assay: holdup assay). Conditions: plain residues with an end cap or a label only (N-terminal biotin on a linker: ado-ado).
Set-up: key: below the threshold = too weak to quantify, mostly under pKd 3.1 to 4

pKd | Binder
below the threshold | QLSFNTDTLC [ABCA2, Q9BZC7]
below the threshold | EKCGKEFSEF [PRKACA, P17612]

What follows are binders tested against T5, LIN7B, Q9HAP6 (assay: holdup assay). Conditions: plain residues with an end cap or a label only (N-terminal biotin on a linker: ado-ado).
Set-up: key: below the threshold = too weak to quantify, mostly under pKd 3.1 to 4

pKd | Binder
3.66 | QLSFNTDTLC [ABCA2, Q9BZC7]
3.92 | EKCGKEFSEF [PRKACA, P17612]

What follows are binders tested against T6, FRMPD1, Q5SYB0 (assay: holdup assay). Conditions: plain residues with an end cap or a label only (N-terminal biotin on a linker: ado-ado).
Set-up: key: below the threshold = too weak to quantify, mostly under pKd 3.1 to 4

pKd | Binder
below the threshold | QLSFNTDTLC [ABCA2, Q9BZC7]
below the threshold | EKCGKEFSEF [PRKACA, P17612]

The binders below were run against HTRA1, Q92743 (assay: holdup assay). Conditions: plain residues with an end cap or a label only (N-terminal biotin on a linker: ado-ado).
Chain of HTRA1, Q92743 (Q92743 360-477): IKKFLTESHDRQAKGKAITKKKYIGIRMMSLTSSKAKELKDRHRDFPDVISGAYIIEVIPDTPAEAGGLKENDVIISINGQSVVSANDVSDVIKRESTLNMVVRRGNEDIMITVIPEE
Set-up: key: below the threshold = too weak to quantify, mostly under pKd 3.1 to 4

pKd | Binder
4.11 | QLSFNTDTLC [ABCA2, Q9BZC7]
below the threshold | EKCGKEFSEF [PRKACA, P17612]

The binders below were run against T7, APBA2_1, Q99767 (assay: holdup assay). Conditions: plain residues with an end cap or a label only (N-terminal biotin on a linker: ado-ado).
Set-up: key: below the threshold = too weak to quantify, mostly under pKd 3.1 to 4

pKd | Binder
below the threshold | QLSFNTDTLC [ABCA2, Q9BZC7]
below the threshold | EKCGKEFSEF [PRKACA, P17612]

Each binder was assayed against ARHGEF12, Q9NZN5-2 (assay: holdup assay). Conditions: plain residues with an end cap or a label only (N-terminal biotin on a linker: ado-ado).
Chain of ARHGEF12, Q9NZN5-2 (Q9NZN5 other isoform, or with tags, fused parts or gaps): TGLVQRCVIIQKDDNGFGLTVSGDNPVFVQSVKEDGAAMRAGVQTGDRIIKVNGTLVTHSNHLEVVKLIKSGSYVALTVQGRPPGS
Set-up: key: below the threshold = too weak to quantify, mostly under pKd 3.1 to 4

pKd | Binder
below the threshold | QLSFNTDTLC [ABCA2, Q9BZC7]
below the threshold | EKCGKEFSEF [PRKACA, P17612]

These binders were tested against NHERF4_1, Q86UT5-2 (assay: holdup assay). Conditions: plain residues with an end cap or a label only (N-terminal biotin on a linker: ado-ado).
Chain of NHERF4_1, Q86UT5-2 (Q86UT5 other isoform, or with tags, fused parts or gaps): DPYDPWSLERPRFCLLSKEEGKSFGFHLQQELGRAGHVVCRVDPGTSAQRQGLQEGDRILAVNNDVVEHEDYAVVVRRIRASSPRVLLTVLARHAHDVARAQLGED
Set-up: key: below the threshold = too weak to quantify, mostly under pKd 3.1 to 4

pKd | Binder
4.18 | QLSFNTDTLC [ABCA2, Q9BZC7]
3.56 | EKCGKEFSEF [PRKACA, P17612]

What follows are binders tested against GORASP2, Q9H8Y8 (assay: holdup assay). Conditions: plain residues with an end cap or a label only (N-terminal biotin on a linker: ado-ado).
Set-up: key: below the threshold = too weak to quantify, mostly under pKd 3.1 to 4

pKd | Binder
below the threshold | QLSFNTDTLC [ABCA2, Q9BZC7]
below the threshold | EKCGKEFSEF [PRKACA, P17612]

These binders were tested against Inadl_8, Q8NI35 (assay: holdup assay). Conditions: plain residues with an end cap or a label only (N-terminal biotin on a linker: ado-ado).
Chain of Inadl_8, Q8NI35 (Q8NI35 1425-1530): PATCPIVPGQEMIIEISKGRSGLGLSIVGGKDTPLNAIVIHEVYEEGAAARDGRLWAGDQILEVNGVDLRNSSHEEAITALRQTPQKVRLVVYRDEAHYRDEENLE
Set-up: key: below the threshold = too weak to quantify, mostly under pKd 3.1 to 4

pKd | Binder
below the threshold | QLSFNTDTLC [ABCA2, Q9BZC7]
below the threshold | EKCGKEFSEF [PRKACA, P17612]

The binders below were run against T8, LIN7A, O14910 (assay: holdup assay). Conditions: plain residues with an end cap or a label only (N-terminal biotin on a linker: ado-ado).
Set-up: key: below the threshold = too weak to quantify, mostly under pKd 3.1 to 4

pKd | Binder
below the threshold | QLSFNTDTLC [ABCA2, Q9BZC7]
below the threshold | EKCGKEFSEF [PRKACA, P17612]

These binders were tested against T9, PCLO, Q9Y6V0 (assay: holdup assay). Conditions: plain residues with an end cap or a label only (N-terminal biotin on a linker: ado-ado).
Set-up: key: below the threshold = too weak to quantify, mostly under pKd 3.1 to 4

pKd | Binder
below the threshold | QLSFNTDTLC [ABCA2, Q9BZC7]
below the threshold | EKCGKEFSEF [PRKACA, P17612]

These binders were tested against IL16_4, Q14005 (assay: holdup assay). Conditions: plain residues with an end cap or a label only (N-terminal biotin on a linker: ado-ado).
Chain of IL16_4, Q14005 (Q14005 1229-1329): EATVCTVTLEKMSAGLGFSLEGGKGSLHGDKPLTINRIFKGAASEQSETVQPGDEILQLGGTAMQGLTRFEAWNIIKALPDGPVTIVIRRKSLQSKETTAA
Set-up: key: below the threshold = too weak to quantify, mostly under pKd 3.1 to 4

pKd | Binder
below the threshold | QLSFNTDTLC [ABCA2, Q9BZC7]
below the threshold | EKCGKEFSEF [PRKACA, P17612]

These binders were tested against T10, MPP6, Q9NZW5 (assay: holdup assay). Conditions: plain residues with an end cap or a label only (N-terminal biotin on a linker: ado-ado).
Set-up: key: below the threshold = too weak to quantify, mostly under pKd 3.1 to 4

pKd | Binder
below the threshold | QLSFNTDTLC [ABCA2, Q9BZC7]
below the threshold | EKCGKEFSEF [PRKACA, P17612]

These binders were tested against LAP2, Q96RT1 (assay: holdup assay). Conditions: plain residues with an end cap or a label only (N-terminal biotin on a linker: ado-ado).
Chain of LAP2, Q96RT1 (Q96RT1 other isoform, or with tags, fused parts or gaps): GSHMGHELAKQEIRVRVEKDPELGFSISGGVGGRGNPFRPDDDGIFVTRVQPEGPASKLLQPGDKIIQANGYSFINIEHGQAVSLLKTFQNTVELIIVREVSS
Set-up: key: below the threshold = too weak to quantify, mostly under pKd 3.1 to 4

pKd | Binder
below the threshold | QLSFNTDTLC [ABCA2, Q9BZC7]
below the threshold | EKCGKEFSEF [PRKACA, P17612]

What follows are binders tested against TJP1_3, Q07157 (assay: holdup assay). Conditions: plain residues with an end cap or a label only (N-terminal biotin on a linker: ado-ado).
Chain of TJP1_3, Q07157 (Q07157 416-512): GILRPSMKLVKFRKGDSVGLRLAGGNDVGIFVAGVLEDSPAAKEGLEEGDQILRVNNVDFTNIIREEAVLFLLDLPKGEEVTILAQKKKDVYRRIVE
Set-up: key: below the threshold = too weak to quantify, mostly under pKd 3.1 to 4

pKd | Binder
below the threshold | QLSFNTDTLC [ABCA2, Q9BZC7]
below the threshold | EKCGKEFSEF [PRKACA, P17612]

These binders were tested against T11, PDZRN3_1, Q9UPQ7 (assay: holdup assay). Conditions: plain residues with an end cap or a label only (N-terminal biotin on a linker: ado-ado).
Set-up: key: below the threshold = too weak to quantify, mostly under pKd 3.1 to 4

pKd | Binder
below the threshold | QLSFNTDTLC [ABCA2, Q9BZC7]
below the threshold | EKCGKEFSEF [PRKACA, P17612]

These binders were tested against T12, SNTG1, Q9NSN8 (assay: holdup assay). Conditions: plain residues with an end cap or a label only (N-terminal biotin on a linker: ado-ado).
Set-up: key: below the threshold = too weak to quantify, mostly under pKd 3.1 to 4

pKd | Binder
below the threshold | QLSFNTDTLC [ABCA2, Q9BZC7]
below the threshold | EKCGKEFSEF [PRKACA, P17612]

Each binder was assayed against HTRA2, O43464 (assay: holdup assay). Conditions: plain residues with an end cap or a label only (N-terminal biotin on a linker: ado-ado).
Chain of HTRA2, O43464 (O43464 355-458): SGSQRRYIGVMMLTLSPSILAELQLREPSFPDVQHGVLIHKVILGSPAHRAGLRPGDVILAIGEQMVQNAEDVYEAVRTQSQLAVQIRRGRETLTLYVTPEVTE
Set-up: key: below the threshold = too weak to quantify, mostly under pKd 3.1 to 4

pKd | Binder
below the threshold | QLSFNTDTLC [ABCA2, Q9BZC7]
below the threshold | EKCGKEFSEF [PRKACA, P17612]

The binders below were run against GRID2IP_1, A4D2P6 (assay: holdup assay). Conditions: plain residues with an end cap or a label only (N-terminal biotin on a linker: ado-ado).
Chain of GRID2IP_1, A4D2P6 (A4D2P6 1-87): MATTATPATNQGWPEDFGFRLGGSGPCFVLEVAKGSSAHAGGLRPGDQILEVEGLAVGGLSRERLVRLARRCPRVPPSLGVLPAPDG
Set-up: key: below the threshold = too weak to quantify, mostly under pKd 3.1 to 4

pKd | Binder
below the threshold | QLSFNTDTLC [ABCA2, Q9BZC7]
below the threshold | EKCGKEFSEF [PRKACA, P17612]
